Source: paper PMC3950713
Like-named read-outs stand apart in the source and are kept apart here.

Columns and labels:
[1] = biological target: HpDprA(5-225), C-terminally truncated Helicobacter pylori DprA (H. pylori strain 26695) (UniProt B5ZAA1); test: crystal structure
[2] = biological target: HpDprA(5-225), C-terminally truncated Helicobacter pylori DprA (H. pylori strain 26695) (UniProt B5ZAA1)
[3] = biological target: Full-length Helicobacter pylori DprA (DNA processing protein A, HP0333) (H. pylori strain 26695) (UniProt B5ZAA1); test: SEC
[4] = biological target: HpDprA(5-217), C-terminally truncated Helicobacter pylori DprA (H. pylori strain 26695) (UniProt B5ZAA1); test: static light scattering
[5] = biological target: HpDprA(5-217), C-terminally truncated Helicobacter pylori DprA (H. pylori strain 26695) (UniProt B5ZAA1); test: crystal structure
[6] = biological target: HpDprA(5-217), C-terminally truncated Helicobacter pylori DprA (H. pylori strain 26695) (UniProt B5ZAA1); test: SEC
HpDprA(5-217)WT [7] = biological target: T1, HpDprA(5-217)WT (Helicobacter pylori 26695, UniProt O25100 5-217); test: MST
T1 sequence: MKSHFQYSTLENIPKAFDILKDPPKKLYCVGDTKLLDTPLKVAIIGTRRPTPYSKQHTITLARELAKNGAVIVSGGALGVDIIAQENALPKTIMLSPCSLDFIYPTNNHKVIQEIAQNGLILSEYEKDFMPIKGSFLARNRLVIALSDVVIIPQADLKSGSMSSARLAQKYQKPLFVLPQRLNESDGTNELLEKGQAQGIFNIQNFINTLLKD

HpDprA(5-217)WT [8] = biological target: T1, HpDprA(5-217)WT; test: SEC/SLS
HpDprA full-length = biological target: T2, HpDprA full-length (Helicobacter pylori 26695, UniProt O25100 1-270); test: EMSA
T2 sequence: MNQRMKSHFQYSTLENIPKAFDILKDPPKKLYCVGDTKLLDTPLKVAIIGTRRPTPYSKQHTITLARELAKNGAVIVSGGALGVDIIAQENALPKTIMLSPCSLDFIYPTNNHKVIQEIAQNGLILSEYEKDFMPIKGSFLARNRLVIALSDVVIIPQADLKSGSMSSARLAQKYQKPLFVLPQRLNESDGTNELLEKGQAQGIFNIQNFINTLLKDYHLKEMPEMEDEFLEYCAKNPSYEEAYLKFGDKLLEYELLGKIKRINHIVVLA

HpDprA(5-217)WT [9] = biological target: T1, HpDprA(5-217)WT; test: EMSA
HpDprA(5-217)WT [10] = biological target: T1, HpDprA(5-217)WT; test: EMSA; remark: listed apart in the source

In the case of “HpDprA(5-225), C-terminally truncated Helicobacter pylori DprA (from UniProt B5ZAA1 5-225) (domain or fragment)”, the stoichiometry N [1] is reported as 2 and the stoichiometry N [2] is reported as 2.

With “Full-length Helicobacter pylori DprA (DNA processing protein A, HP0333) (from UniProt B5ZAA1 1-266) (natural protein)” the stoichiometry N [3] was 2.

Work on “HpDprA(5-217), C-terminally truncated Helicobacter pylori DprA (from UniProt B5ZAA1 5-217) (domain or fragment)” yielded a stoichiometry N [4] of 2, a stoichiometry N [5] of 2 and a stoichiometry N [6] of 2.

With AAAAAAAAAAAAAAAAAAAAAAAAAAAAAAAAAAA (ssDNA) [dA35] the Kd (HpDprA(5-217)WT [7]) was 1200 ± 35.3 nM.

CCACAACTGGATGATGCGGCGAAGTACTGT (ssDNA) [dR30] showed a Kd (HpDprA(5-217)WT [7]) of 370 ± 8.82 nM.

B1: dsDNA30 (dsDNA)
DNA 1: CCACAACTGGATGATGCGGCGAAGTACTGT
DNA 2: ACAGTACTTCGCCGCATCATCCAGTTGTGG
B1 showed a Kd (HpDprA(5-217)WT [7]) of 831 ± 8.48 nM.

TTTTTT (ssDNA) [dT6]: no binding (HpDprA(5-217)WT [7]).

TTTTTTTTTT (ssDNA) [dT10]: no binding (HpDprA(5-217)WT [7]).

B2: dT60 (ssDNA)
DNA: TTTTTTTTTTTTTTTTTTTTTTTTTTTTTTTTTTTTTTTTTTTTTTTTTTTTTTTTTTTT
B2: binds (HpDprA(5-217)WT [8]).

TACCTAACTGGATGAATCTGAGAACTACTGTGAAT (ssDNA) [dR35]: binds (HpDprA full-length).

TTTTTTTTTTTTTTTTTTTT (ssDNA) [dT20]: binds (HpDprA(5-217)WT [9]).

TTTTTTTTTTTTTTTTTTTTTTTTTTTTTTTTTTTTTTTT (ssDNA) [dT40]: binds (HpDprA(5-217)WT [10]).

TTTTTTTTTTTTTTTTTTTTTTTTTTTTTTTTTTTTTTTTTTTTTTTTTT (ssDNA) [dT50]: binds (HpDprA(5-217)WT [10]).
